Target: recombinant wild type echinenone-binding protein from Evechinus chloroticus (apo-rEBP) (Evechinus chloroticus)
Assay: SEC; HiPrep 16/60 Sephacryl S-100 HR gel-permeation column, non-reducing conditions, 50 mM HEPES pH 8.0, 0.1 M NaCl, 10% v/v glycerol; final purification step; molecular weights estimated from the manufacturer's column standard curve

stoichiometry N: 2
Substance: recombinant wild type echinenone-binding protein from Evechinus chloroticus (apo-rEBP) (natural protein)
